B1: G2/mitotic-specific cyclin cdc13 (Schizosaccharomyces pombe (strain ATCC 38366 / 972)), P10815 (parent)
chain: MTTRRLTRQHLLANTLGNNDENHPSNHIARAKSSLHSSENSLVNGKKATVSSTNVPKKRHALDDVSNFHNKEGVPLASKNTNVRHTTASVSTRRALEEKSIIPATDDEPASKKRRQPSVFNSSVPSLPQHLSTKSHSVSTHGVDAFHKDQATIPKKLKKDVDERVVSKDIPKLHRDSVESPESQDWDDLDAEDWADPLMVSEYVVDIFEYLNELEIETMPSPTYMDRQKELAWKMRGILTDWLIEVHSRFRLLPETLFLAVNIIDRFLSLRVCSLNKLQLVGIAALFIASKYEEVMCPSVQNFVYMADGGYDEEEILQAERYILRVLEFNLAYPNPMNFLRRISKADFYDIQTRTVAKYLVEIGLLDHKLLPYPPSQQCAAAMYLAREMLGRGPWNRNLVHYSGYEEYQLISVVKKMINYLQKPVQHEAFFKKYASKKFMKASLFVRDWIKKNSIPLGDDADEDYTFHKQKRIQHDMKDEEW
partner: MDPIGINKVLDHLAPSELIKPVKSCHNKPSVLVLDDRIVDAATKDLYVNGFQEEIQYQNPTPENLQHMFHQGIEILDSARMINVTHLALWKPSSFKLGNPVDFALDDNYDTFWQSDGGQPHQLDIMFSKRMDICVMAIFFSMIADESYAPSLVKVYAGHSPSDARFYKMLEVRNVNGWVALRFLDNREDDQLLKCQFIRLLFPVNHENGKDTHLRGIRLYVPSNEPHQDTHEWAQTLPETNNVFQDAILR

The variants in the test derive from B1. As to conditions: with apc10_yeast DOC1, P53068.
With R59A;L62A;V65A;N67A, the “effect of a mutation on the interaction” value is reported as “decreasing interaction”.

The values above are taken from IntAct's records for PubMed 21107322.
